# Positions count from the first letter of the chain named. Names may count otherwise. “And” between values parts separate entries of the source, which are not always exact repeats. Identical values can stand only once. Like-named read-outs stand apart in the source and are kept apart here.
# B1: SILK_(deletion): I3_(38-68) (Δ27-37) (domain or fragment, human, UniProt O60927 38-68, looked up)
# chain: EKKVEWTSDTVDNEHMGRRSSKCCCIYEKPR
# notes: PPP1R11), human, residues 38-68; source: E. coli BL21 (DE3), purified (Ni-NTA, TEV, heat 95 °C, SEC); not shown: His6, N-terminal, cleaved; MBP, N-terminal, cleaved
# B2: SILK_(deletion): I3_(38-68) (Δ27-37) (domain or fragment, human, UniProt O60927 38-68, looked up)
# chain: B1 chain
# notes: PPP1R11), human, residues 38-68; also called SILKdead: I338-68 (Δ27-37); source: E. coli BL21 (DE3), purified (Ni-NTA, TEV cleavage, heat, SEC); not shown: His6, N-terminal, cleaved; MBP, N-terminal, cleaved
# B3: Inhibitor-3 I3_(1-126) (full-length) (natural protein, human, UniProt O60927 1-126, looked up)
# chain: MAEAGAGLSETVTETTVTVTTEPENRSLTIKLRKRKPEKKVEWTSDTVDNEHMGRRSSKCCCIYEKPRAFGESSTESDEEEEEGCGHTHCVRGHRKGRRRATLGPTPTTPPQPPDPSQPPPGPMQH
# notes: PPP1R11), human, 126 aa, residues 1-126; Uniformly 15N-labelled in the NMR experiment, unlabelled in SPR; also called PPP1R11; YPI1; source: E. coli BL21 (DE3), purified (Ni-NTA, TEV, heat 95 °C, SEC); not shown: His6, N-terminal, cleaved; MBP, N-terminal, cleaved
# B4: I3_(1-126) (FL, full-length) (natural protein, human, UniProt O60927 1-126, looked up)
# chain: B3 chain
# notes: PPP1R11), human, 126 aa, residues 1-126; also called PPP1R11; source: E. coli BL21 (DE3), purified (Ni-NTA, TEV cleavage, heat, SEC); not shown: His6, N-terminal, cleaved; MBP, N-terminal, cleaved
# B5: RVxF_(dead): I3_(1-126) 40KAEA43 (natural protein, human, UniProt O60927 1-126, looked up)
# chain: B3 chain with V41A, W43A
# notes: PPP1R11), human, residues 1-126; Uniformly 15N-labelled in the NMR experiment, unlabelled in SPR; also called I3_(RAXA) variant; I3 RVxF_(dead); source: E. coli BL21 (DE3), purified (Ni-NTA, TEV, heat 95 °C, SEC); not shown: His6, N-terminal, cleaved; MBP, N-terminal, cleaved
# B6: SILK_(dead): I3_(1-126) T29A/I30A/K31A (natural protein, human, UniProt O60927 1-126, looked up)
# chain: B3 chain with T29A, I30A, K31A
# notes: PPP1R11), human, residues 1-126; also called I3_(1-126) 29AAA31; source: E. coli BL21 (DE3), purified (Ni-NTA, TEV, heat 95 °C, SEC); not shown: His6, N-terminal, cleaved; MBP, N-terminal, cleaved
# B7: SILK_(dead): I3_(1-126) T29A/I30A/K31A (natural protein, human, UniProt O60927 1-126, looked up)
# chain: B3 chain with T29A, I30A, K31A
# notes: PPP1R11), human, residues 1-126, T29A/I30A/K31A; also called I3_1-126_SLAAA; I3_(1-126) 29AAA31; source: E. coli BL21 (DE3), purified (Ni-NTA, TEV cleavage, heat, SEC); not shown: His6, N-terminal, cleaved; MBP, N-terminal, cleaved
# B8: SSS: I3_(1-126) C60S/C61S/C62S (natural protein, human, UniProt O60927 1-126, looked up)
# chain: B3 chain with C60S, C61S, C62S
# notes: PPP1R11), human, residues 1-126; also called I3_(1-126)SSS; source: E. coli BL21 (DE3), purified (Ni-NTA, TEV, heat 95 °C, SEC); not shown: His6, N-terminal, cleaved; MBP, N-terminal, cleaved
# B9: SSS: I3_(1-126) C60S/C61S/C62S (natural protein, human, UniProt O60927 1-126, looked up)
# chain: B3 chain with C60S, C61S, C62S
# notes: PPP1R11), human, residues 1-126, C60S/C61S/C62S; also called I3_1-126_SSS; I3_(1-126)SSS; source: E. coli BL21 (DE3), purified (Ni-NTA, TEV cleavage, heat, SEC); not shown: His6, N-terminal, cleaved; MBP, N-terminal, cleaved
# B10: RVxF_(dead): I3_(1-126) 40KAEA43 (natural protein, human, UniProt O60927 1-126, looked up)
# chain: B3 chain with V41A, W43A
# notes: PPP1R11), human, residues 1-126, 40KVEW43 mutated to 40KAEA43; also called I3_1-126_KAEA; I3_(RAXA); source: E. coli BL21 (DE3), purified (Ni-NTA, TEV cleavage, heat, SEC); not shown: His6, N-terminal, cleaved; MBP, N-terminal, cleaved
# B11: SILK_(dead): I3_(27-68) T29A/I30A/K31A (domain or fragment, human, UniProt O60927 27-68, looked up)
# chain: SLAAALRKRKPEKKVEWTSDTVDNEHMGRRSSKCCCIYEKPR
# notes: PPP1R11), human, residues 27-68; also called I3_(27-68) 29AAA31; source: E. coli BL21 (DE3), purified (Ni-NTA, TEV, heat 95 °C, SEC); not shown: His6, N-terminal, cleaved; MBP, N-terminal, cleaved
# B12: SILK_(dead): I3_(27-68) T29A/I30A/K31A (domain or fragment, human, UniProt O60927 27-68, looked up)
# chain: B11 chain
# notes: PPP1R11), human, residues 27-68, T29A/I30A/K31A; also called I3_27-68_SLAAA; I3_(27-68) 29AAA31; source: E. coli BL21 (DE3), purified (Ni-NTA, TEV cleavage, heat, SEC); not shown: His6, N-terminal, cleaved; MBP, N-terminal, cleaved
# Experiments:
# PP1_7-330 [1] = molecular target: T1, PP1_7-330 (Homo sapiens, UniProt P62136)
# T1 construct: gene PPP1CA; His6-PP1α7-330, E. coli expressed, Mn2+ loaded
# T1 sequence (P62136 7-330): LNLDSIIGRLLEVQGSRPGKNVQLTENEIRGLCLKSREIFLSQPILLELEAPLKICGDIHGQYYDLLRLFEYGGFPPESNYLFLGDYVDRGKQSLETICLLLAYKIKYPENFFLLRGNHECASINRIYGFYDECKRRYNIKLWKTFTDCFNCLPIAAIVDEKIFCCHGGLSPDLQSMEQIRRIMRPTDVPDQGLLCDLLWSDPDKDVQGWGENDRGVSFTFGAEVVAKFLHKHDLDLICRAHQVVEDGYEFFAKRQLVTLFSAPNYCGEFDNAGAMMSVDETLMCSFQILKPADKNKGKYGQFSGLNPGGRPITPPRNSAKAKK
# Method: SPR measurements were performed using a 4-channel Reichert 4SPR instrument fitted with autosampler and a degassing pump (Reichert Technologies). SPR buffers containing 20 mM Tris pH 8.0, 500 mM NaCl, 1 mM MnCl2, 0.5 mM TCEP, 0.05% Tween-20 were prepared, sterile filtered, and degassed in autoclaved glassware prior to each experiment. Running buffer was used to prime and run both the sample and syringe pump reservoirs. Gold sensorchips modified with Ni-NTA-functionalized polycarboxylate (NiH[…]; XanTec Bioanalytics GmbH) were installed and equilibrated under flow conditions (100 μL/min) for ≥60 min at 25 °C. Surface contaminants were cleared from the chip surface by a pair of 120 μL injections of 2 M NaCl and 10 mM NaOH during the equilibration step. […] The sensorchip was allowed to equilibrate for 5 min at 50 μL/min prior to initiation of experiments. The concentrations of I3_1-126 and its variants ([…] and […]3_79-91) were measured using AccuOrange^TM Protein Quantification Kit (Biotium). For measurements, I3_1-126 and its variants were diluted into running buffer from concentrated stocks, and a series of injections at different I3 concentrations were applied. […] For all experiments, buffer blank injections were included at an interval of two sample injections to achieve double referencing. Technical replicates were obtained by utilizing three channels per chip coupled with stripping of the sensorchip with 350 mM EDTA pH 8.0, reconditioning the surface with 10 mM NaOH to remove non-specifically bound PP1 aggregates, charging the surface with 10 mM NiSO4, and reloading fresh PP1 onto the surface. All replicates were generated with freshly diluted PP1 and I3. Kinetic parameters were determined by curve-fitting using TraceDrawer software (Ridgeview Instruments AB) fit with a one-to-one one state or one-to-one two state model. Statistical analyses of SPR data were performed using Microsoft Excel.
# PP1_7-330 [2] = molecular target: T1, PP1_7-330; details: SD, n = 3
# His6-PP1α_(7-330) [3] = molecular target: T2, His6-PP1α_(7-330) (UniProt P62136 7-330); assay: SPR; His6-PP1 captured on a Ni-NTA sensorchip (NiHC200M), I3 variants injected; 25 °C; 20 mM Tris pH 8.0, 500 mM NaCl, 1 mM MnCl2, 0.5 mM TCEP, 0.05% Tween-20; one-to-one one state or one-to-one two state model; details: both partners purified
# T2 construct: Protein Phosphatase 1 alpha (PP1α), residues 7-330; Captured by its His6 tag on the Ni-NTA chip for SPR; Two Mn2+ at the active site when made in E. coli with MnCl2; also called PP1_(7-330); Protein Phosphatase 1; source: bacterial expression (E. coli) as previously described, purified (Ni-NTA, SEC)
# T2 sequence (P62136 7-330): as above
# PP1α_(7-330) = molecular target: T3, PP1α_(7-330) (UniProt P62136 7-330); assay: SPR; His6-PP1 captured on Ni-NTA chip (NiHC200M), I3 variants injected; 25 °C; 20 mM Tris pH 8.0, 500 mM NaCl, 1 mM MnCl2, 0.5 mM TCEP, 0.05% Tween-20; one-to-one one state or one-to-one two state model (TraceDrawer); details: both partners purified
# T3 construct: Protein Phosphatase 1 alpha (PP1α), residues 7-330; His6-PP1 was captured on the Ni-NTA sensor chip as the SPR ligand; Mn2+ in all buffers; also called Protein Phosphatase 1; His6-PP1; source: E. coli, purified (Ni-NTA, SEC)
# T3 sequence (P62136 7-330): as above
# His6-PP1α_(7-330) [4] = molecular target: T2, His6-PP1α_(7-330); assay: cell-based or functional assay
Molecule,Kd (His6-PP1α_(7-330) [3]),Kd (PP1α_(7-330)),further results
I3 1-126 C60S/C61S/C62S [SSS: I3_1-126 C60S/C61S/C62S],–,–,Kd (PP1_7-330 [1]; n = 3): 300 ± 23 nM
I3 1-126 T29A/I30A/K31A [SILKdead: I3_1-126 T29A/I30A/K31A],–,–,Kd (PP1_7-330 [1]; n = 3): 13.1 ± 2.8 nM
I3 1-126 with KVEW 40-43 mutated to KAEA [RVxFdead: I3_1-126 ^40KAEA^43],–,–,Kd (PP1_7-330 [1]; n = 4): 3460 ± 531 nM
"human Inhibitor-3 (PPP1R11) full length, residues 1-126 [I3_1-126]",–,–,IC50 (PP1_7-330 [2]): 71 ± 6 nM; Kd (PP1_7-330 [1]; n = 3): 15.7 ± 2 nM
B1,15.2 ± 2.5 nM,–,–
B2,–,14.8 nM and 17.9 nM and 13 nM,–
B3,15.7 ± 2 nM,–,"IC50 of PP1 inhibition (dephosphorylation of the H3pT3 peptide, released Pi) (His6-PP1α_(7-330) [4]): 71 nM"
B4,–,17.7 nM and 13.7 nM and 15.6 nM,–
B5,3460 ± 531 nM,–,–
B6,13.1 ± 2.8 nM,–,–
B7,–,16.3 nM and 11.9 nM and 11.2 nM,–
B8,300 ± 23 nM,–,–
B9,–,295 nM and 330 nM and 287 nM and 304 nM,koff (PP1α_(7-330)): 0.0957 s⁻¹ and 0.103 s⁻¹ and 0.093 s⁻¹ and 0.0972 s⁻¹; kon (PP1α_(7-330)): 325000 M⁻¹ s⁻¹ and 313000 M⁻¹ s⁻¹ and 321000 M⁻¹ s⁻¹
B10,–,3390 nM and 3260 nM and 2970 nM and 4210 nM,–
B11,16.8 ± 2.8 nM,–,–
B12,–,13.5 nM and 18.2 nM and 18.6 nM,–
